Measured values taken from US12564641B2 (EISAI R&D MANAGEMENT CO., LTD., priority 2019, dated 2026).

What was measured:
[1] = SEC-HPLC aggregation analysis; type: physicochemical; conditions: Table 21, humanized 345A12
Method: SEC-HPLC analysis was conducted using Agilent 1200 HPLC system.
Aggregation of LCcys80 ADCs was analyzed by size-exclusion, high-performance liquid chromatography (SEC-HPLC) using an Agilent 1200 HPLC. Antibodies and ADCs were prepared at 2 mg/mL in 1×DPBS, 8 μL (16 μg) of each sample was injected and run for 36 min. All data were analyzed using Agilent ChemStation software. Percent aggregation, percent monomer, and percent fragmentation were reported.

[2] = Capillary isoelectric focusing (cIEF) analysis; type: physicochemical
Method: Auto-sampler reagents were filled according to the CFR installation and start-up procedures. Hemoglobin was used as system stability standard. Default settings for batch data analysis was used. Focus period #1 was performed for 1 min at 1,500 V for both the system suitability standards and samples. Focus period #2 was performed for 5 min at 3,000 V for the system suitability standards and 11 min at 3,000 V for the TIGC samples and matched buffer controls. Duplicate TIGC samples used Focus period #2 at 4.5 min and all samples were bracketed with a system suitability standard. Samples were automatically integrated using a peak width parameter of 0.1 and threshold of 5 and integrated between pI 7.5-9.4.

[3] = Concentration of purified humanized 345A12 antibodies to 5 mg/mL; type: physicochemical; conditions: purified antibody in 1×DPBS
Method: The super-humanized 345A12 antibodies were purified from 350 mL of scale-up cell culture and formulated in 1×DPBS. The antibodies were concentrated for physical-chemical property evaluation.

[4] = test system: cynomolgus monkey mesothelin; assay: BIAcore binding affinity, cynomolgus monkey mesothelin (Example 10)
Method: (§1) Binding affinity: Binding measurements were performed in HBS-P+ buffer on a BIAcore T-100 instrument. Antibodies were diluted to 1 μg/mL in HBS-P+. Samples were centrifuged at 14,000×g for 5 min at room temperature and then supernatants were transferred to a new 1.5 mL BIAcore tube and capped. Mesothelin (50 μg) was diluted to 100 nM in 1×HBS-P+ buffer, then serial diluted 5-fold at 100, 20, 4, 0.8, and 0.16 nM in BIAcore tubes and capped. Anti-human antibody capture chip was prepared according to the manufacturer's protocol using a CM5 chip with immobilization wizard. Final capture antibody levels were 8000-9000RU, in HBS-P+. Chip was prepared for assay with five cycles of 300 sec buffer injection followed by 30 sec regeneration, all at 30 μL/min across all four flow cells.
(§2) Antibodies were captured on flow cells 2-4 by sequential injections of individual ligand solutions for 90 sec at 10 μL/min. Analyte injection was done in a single-cycle kinetics manner by sequential injections of analyte solutions from low to high concentration for 240 sec each at 30 μL/min. Detection was 2-1, 3-1, 4-1. Double-referencing was performed by a sequence of identical ligand capture injections, followed by 5 buffer-only injections for 240 sec each, dissociation for 1800 sec, and regeneration as above. All ligands were analyzed for binding to mesothelin in duplicate. […]

rat mesothelin = molecular target: T1, rat mesothelin (Rattus norvegicus, UniProt Q9ERA7); assay: BIAcore binding affinity, rat mesothelin (Example 10)
T1 sequence (Q9ERA7 36-600): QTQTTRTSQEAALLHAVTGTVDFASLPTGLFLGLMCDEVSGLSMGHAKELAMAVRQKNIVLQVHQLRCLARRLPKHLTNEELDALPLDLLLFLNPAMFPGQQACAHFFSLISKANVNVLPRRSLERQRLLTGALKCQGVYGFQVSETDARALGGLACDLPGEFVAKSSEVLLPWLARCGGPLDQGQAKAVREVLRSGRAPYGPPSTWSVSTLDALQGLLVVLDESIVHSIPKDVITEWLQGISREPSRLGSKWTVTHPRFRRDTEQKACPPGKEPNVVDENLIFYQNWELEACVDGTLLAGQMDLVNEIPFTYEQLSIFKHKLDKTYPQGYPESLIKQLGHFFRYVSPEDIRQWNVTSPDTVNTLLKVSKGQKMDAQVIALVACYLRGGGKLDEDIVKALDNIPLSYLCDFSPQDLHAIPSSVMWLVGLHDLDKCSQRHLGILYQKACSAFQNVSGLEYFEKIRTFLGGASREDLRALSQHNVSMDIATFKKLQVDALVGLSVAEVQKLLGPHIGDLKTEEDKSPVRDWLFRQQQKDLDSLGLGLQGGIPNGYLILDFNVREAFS
Method: as §1, §2

**Q.** With “345A12-HC15-LC4: anti-mesothelin antibody, heavy chain SEQ ID NO: 17, light chain SEQ ID NO: 18; antibody in MORAb-109” as the substance, how does the “Aggregation % Monomer” value [1] read?
**A.** Its value is 86.56%.

**Q.** What about the “% Acidic Peaks” value [2] of the same substance?
**A.** The value was 34.787%.

**Q.** And the “% Basic Peaks” value [2]?
**A.** The value was 14.424%.

**Q.** And the “% Neutral Peak” value [2]?
**A.** The value was 50.790%.

**Q.** What about the pI [2] of the same substance?
**A.** The pI was 8.25.

**Q.** And the “Concentration to 5 mg/mL” value [3]?
**A.** Its value is “Yes”.

**Q.** And the “binding to cynomolgus monkey mesothelin” value [4]?
**A.** Its value is “retained binding affinity”.

**Q.** What about the “binding to rat mesothelin” value (rat mesothelin) of the same substance?
**A.** Its value is “Nether antibody bound”.
